Source: PMC4158924

Biological target: K12-acetylated histone H4 tail peptide (residues 1–20), biotinylated at the C-terminus (UniProt P62805)
Test: SPR

- Kd: 300 µM
Substance: second bromodomain of human BRD2 (BRD2-BD2: residues 348–455) (from UniProt P25440 348-455) (domain or fragment)
